In patent US20040234530:

Columns and labels:
[1] = target: T1, α2-macroglobulin (Calbiochem, San Diego, CA), P01023
T1 chain: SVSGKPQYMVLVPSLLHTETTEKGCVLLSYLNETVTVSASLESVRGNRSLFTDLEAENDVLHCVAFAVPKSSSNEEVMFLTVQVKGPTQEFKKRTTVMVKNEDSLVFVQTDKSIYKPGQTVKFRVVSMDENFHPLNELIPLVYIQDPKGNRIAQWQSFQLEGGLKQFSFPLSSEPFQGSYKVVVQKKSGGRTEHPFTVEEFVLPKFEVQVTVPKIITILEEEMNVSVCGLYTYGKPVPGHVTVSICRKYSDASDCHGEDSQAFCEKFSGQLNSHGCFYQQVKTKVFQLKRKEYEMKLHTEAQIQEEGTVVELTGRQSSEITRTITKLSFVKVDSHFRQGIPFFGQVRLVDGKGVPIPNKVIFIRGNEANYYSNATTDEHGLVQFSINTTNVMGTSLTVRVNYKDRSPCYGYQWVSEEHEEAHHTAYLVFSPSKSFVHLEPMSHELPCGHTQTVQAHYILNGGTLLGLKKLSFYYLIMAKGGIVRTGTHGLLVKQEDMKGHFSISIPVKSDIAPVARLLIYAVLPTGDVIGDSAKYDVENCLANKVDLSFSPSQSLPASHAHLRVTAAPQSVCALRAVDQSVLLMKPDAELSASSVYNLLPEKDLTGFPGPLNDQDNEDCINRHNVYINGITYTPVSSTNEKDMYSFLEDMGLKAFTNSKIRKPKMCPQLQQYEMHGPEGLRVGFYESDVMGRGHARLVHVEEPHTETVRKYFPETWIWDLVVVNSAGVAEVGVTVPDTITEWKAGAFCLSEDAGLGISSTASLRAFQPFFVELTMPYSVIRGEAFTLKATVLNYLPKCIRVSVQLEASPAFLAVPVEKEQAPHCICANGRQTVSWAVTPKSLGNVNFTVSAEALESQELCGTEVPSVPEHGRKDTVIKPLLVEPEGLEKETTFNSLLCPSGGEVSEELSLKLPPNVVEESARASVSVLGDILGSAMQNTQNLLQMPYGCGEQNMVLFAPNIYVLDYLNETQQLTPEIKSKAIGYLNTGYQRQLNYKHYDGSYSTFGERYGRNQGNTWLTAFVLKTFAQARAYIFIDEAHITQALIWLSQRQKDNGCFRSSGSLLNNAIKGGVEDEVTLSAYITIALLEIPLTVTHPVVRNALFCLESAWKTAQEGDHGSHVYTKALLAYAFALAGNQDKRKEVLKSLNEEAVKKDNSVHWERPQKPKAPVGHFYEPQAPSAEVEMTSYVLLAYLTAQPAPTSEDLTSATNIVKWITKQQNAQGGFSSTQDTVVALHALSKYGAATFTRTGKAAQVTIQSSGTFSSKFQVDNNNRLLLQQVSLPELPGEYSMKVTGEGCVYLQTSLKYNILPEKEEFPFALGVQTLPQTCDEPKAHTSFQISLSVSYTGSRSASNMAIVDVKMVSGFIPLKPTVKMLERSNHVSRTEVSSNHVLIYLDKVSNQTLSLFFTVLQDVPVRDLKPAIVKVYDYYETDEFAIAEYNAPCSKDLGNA

[2] = target: antithrombin (Enzyme Research Labs, South Bend, IN), P01008
[3] = target: T2, C1-esterase inhibitor (human plasma protease C1 inhibitor), purified or in human serum, P05155
T2 chain: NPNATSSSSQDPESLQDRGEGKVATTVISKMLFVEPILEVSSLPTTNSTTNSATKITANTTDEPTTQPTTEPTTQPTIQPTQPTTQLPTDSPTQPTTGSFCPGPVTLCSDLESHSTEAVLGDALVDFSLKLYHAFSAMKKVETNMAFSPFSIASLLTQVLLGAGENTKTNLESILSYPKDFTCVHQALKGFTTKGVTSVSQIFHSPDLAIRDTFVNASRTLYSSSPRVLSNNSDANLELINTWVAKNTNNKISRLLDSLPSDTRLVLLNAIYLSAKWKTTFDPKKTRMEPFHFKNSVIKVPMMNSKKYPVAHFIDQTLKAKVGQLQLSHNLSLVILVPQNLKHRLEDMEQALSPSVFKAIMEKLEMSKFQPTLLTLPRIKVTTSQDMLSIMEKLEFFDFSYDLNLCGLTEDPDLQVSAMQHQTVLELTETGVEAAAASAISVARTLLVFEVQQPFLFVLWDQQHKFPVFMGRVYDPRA

[4] = target: α1-antitrypsin (Sigma, St. Louis, MO), P01009
[5] = target: T3, α2-antiplasmin (Calbiochem, San Diego, CA), P08697
T3 chain: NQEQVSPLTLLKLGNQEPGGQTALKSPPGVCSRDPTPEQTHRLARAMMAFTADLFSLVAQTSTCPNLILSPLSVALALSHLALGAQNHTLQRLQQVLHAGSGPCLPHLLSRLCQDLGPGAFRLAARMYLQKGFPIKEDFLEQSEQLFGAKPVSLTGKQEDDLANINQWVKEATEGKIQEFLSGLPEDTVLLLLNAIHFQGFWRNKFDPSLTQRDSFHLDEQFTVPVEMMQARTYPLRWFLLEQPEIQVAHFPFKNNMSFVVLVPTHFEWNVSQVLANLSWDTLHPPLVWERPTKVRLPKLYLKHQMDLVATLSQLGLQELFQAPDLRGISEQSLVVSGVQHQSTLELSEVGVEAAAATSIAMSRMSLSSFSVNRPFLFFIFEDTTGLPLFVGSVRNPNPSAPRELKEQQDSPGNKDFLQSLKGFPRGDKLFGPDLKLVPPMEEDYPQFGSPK

[6] = target: Elastin (Sigma, St. Louis, MO)
[7] = target: T4, α1-antichymotrypsin (Sigma, St. Louis, MO), P01011
T4 chain: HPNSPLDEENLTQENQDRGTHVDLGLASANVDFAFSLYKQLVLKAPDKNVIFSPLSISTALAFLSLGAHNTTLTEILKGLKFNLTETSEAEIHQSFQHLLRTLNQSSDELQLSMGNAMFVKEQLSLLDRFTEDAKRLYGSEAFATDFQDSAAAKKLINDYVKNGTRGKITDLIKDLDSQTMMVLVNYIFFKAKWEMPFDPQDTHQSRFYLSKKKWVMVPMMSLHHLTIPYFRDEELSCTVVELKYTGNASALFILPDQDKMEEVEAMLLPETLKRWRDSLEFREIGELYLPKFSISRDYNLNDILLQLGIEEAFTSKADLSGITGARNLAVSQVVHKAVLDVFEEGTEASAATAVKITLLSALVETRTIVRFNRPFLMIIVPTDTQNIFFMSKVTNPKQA

[8] = target: BODIPY FL-conjugated casein (EnzChek Protease Assay Kit, Molecular Probes)
[9] = target: Gelatin (BioRad, Hercules, CA)
[10] = target: fibronectin (Calbiochem, San Diego, CA), P02751
[11] = target: collagen IV (Rockland, Gilbertsville, PA)
[12] = target: serum albumin (New England Biolabs, Beverly, MA)
[13] = target: von Willebrand factor (gift from Dr. D. Mosher, UW-Madison), P04275
[14] = target: T5, C-serp(98), a recombinant C1-INH molecule lacking the N-terminal amino acids 1-97 and containing only the serpin domain, P05155
T5 chain: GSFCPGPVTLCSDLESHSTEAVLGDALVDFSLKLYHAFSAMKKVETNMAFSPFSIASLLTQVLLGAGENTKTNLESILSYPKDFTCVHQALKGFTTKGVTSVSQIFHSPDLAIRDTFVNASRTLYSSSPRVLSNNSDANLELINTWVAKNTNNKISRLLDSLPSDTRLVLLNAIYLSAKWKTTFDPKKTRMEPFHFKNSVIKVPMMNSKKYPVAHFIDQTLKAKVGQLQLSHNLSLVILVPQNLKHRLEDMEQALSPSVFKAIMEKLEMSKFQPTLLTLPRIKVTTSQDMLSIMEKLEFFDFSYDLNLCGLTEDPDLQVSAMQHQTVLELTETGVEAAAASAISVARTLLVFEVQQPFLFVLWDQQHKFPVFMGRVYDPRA

[15] = target: T6, recombinant, full-length human C1-INH (hC1-INH) expressed in COS-7 cells, 35S-methionine-labeled, P05155
T6 chain: T2 chain

Sequence of fibronectin (Calbiochem, San Diego, CA), P02751 (P02751 32-2477): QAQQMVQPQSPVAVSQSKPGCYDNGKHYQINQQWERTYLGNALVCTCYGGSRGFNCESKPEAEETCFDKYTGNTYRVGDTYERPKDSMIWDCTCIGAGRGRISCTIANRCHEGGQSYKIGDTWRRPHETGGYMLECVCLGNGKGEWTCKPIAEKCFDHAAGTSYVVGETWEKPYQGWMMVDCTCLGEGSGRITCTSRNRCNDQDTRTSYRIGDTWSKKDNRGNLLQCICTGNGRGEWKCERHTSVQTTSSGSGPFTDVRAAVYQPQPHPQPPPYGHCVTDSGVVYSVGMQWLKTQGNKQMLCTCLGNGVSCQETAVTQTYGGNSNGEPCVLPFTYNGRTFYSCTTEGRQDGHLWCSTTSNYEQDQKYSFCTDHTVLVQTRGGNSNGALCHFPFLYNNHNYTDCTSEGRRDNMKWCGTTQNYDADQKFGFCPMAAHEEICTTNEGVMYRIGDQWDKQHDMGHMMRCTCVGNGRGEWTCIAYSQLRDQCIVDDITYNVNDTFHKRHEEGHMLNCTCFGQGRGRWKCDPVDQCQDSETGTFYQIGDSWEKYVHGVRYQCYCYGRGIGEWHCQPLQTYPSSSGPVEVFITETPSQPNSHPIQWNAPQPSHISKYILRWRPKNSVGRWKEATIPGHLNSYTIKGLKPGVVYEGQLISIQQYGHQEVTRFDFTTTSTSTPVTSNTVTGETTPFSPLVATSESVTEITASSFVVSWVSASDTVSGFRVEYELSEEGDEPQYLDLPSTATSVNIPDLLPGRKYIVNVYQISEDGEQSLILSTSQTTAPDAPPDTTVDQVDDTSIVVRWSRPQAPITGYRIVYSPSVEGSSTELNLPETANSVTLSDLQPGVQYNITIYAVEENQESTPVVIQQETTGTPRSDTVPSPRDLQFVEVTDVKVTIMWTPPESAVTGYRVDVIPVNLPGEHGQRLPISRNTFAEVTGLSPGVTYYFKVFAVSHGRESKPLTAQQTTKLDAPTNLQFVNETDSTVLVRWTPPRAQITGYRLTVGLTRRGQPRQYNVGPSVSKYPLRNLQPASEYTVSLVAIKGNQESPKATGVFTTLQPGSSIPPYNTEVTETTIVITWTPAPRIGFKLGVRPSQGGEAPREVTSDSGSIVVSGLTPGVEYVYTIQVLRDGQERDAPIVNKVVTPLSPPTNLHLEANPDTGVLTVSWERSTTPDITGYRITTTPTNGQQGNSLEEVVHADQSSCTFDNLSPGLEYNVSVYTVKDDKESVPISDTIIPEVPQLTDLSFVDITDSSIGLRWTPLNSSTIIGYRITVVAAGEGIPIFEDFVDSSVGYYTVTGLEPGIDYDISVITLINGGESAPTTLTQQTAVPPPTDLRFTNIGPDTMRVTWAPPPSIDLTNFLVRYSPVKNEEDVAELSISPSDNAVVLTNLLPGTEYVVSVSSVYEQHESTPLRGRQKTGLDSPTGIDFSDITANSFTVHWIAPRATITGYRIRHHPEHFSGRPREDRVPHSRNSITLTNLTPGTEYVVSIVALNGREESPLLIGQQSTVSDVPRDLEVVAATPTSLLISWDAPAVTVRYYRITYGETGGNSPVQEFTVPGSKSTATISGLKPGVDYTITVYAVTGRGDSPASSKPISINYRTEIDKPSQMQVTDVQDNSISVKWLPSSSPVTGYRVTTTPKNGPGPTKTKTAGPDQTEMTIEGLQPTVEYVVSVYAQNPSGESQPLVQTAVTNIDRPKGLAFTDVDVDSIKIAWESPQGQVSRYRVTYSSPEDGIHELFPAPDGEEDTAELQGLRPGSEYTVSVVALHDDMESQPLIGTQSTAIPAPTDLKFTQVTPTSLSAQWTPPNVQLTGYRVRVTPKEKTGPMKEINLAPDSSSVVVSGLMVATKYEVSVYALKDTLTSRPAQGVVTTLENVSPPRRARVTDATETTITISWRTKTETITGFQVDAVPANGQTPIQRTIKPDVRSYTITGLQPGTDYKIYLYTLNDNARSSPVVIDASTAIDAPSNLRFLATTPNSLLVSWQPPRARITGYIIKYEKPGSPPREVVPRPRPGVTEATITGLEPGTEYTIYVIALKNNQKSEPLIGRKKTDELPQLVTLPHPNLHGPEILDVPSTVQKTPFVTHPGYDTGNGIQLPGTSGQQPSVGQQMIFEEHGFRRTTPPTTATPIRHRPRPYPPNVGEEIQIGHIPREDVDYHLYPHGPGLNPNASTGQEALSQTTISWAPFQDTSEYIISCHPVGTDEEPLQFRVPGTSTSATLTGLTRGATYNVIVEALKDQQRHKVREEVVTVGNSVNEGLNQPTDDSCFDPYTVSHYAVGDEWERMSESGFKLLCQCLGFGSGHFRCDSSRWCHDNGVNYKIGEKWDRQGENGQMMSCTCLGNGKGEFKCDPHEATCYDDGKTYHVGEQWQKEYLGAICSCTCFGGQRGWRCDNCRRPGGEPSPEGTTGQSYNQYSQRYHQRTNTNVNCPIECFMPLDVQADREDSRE
Sequence of α1-antitrypsin (Sigma, St. Louis, MO), P01009 (P01009 whole entry, looked up): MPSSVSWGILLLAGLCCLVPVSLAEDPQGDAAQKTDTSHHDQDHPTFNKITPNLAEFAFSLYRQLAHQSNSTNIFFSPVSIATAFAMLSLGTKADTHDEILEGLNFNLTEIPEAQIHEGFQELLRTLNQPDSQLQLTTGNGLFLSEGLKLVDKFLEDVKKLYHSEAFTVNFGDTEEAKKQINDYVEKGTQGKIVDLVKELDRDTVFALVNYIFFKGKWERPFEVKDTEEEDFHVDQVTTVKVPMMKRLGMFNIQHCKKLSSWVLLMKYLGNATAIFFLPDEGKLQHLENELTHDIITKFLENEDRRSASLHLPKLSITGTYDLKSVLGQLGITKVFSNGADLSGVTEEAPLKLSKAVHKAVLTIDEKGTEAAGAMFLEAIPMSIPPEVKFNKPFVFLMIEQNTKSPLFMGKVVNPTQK
Sequence of antithrombin (Enzyme Research Labs, South Bend, IN), P01008 (P01008 whole entry, looked up): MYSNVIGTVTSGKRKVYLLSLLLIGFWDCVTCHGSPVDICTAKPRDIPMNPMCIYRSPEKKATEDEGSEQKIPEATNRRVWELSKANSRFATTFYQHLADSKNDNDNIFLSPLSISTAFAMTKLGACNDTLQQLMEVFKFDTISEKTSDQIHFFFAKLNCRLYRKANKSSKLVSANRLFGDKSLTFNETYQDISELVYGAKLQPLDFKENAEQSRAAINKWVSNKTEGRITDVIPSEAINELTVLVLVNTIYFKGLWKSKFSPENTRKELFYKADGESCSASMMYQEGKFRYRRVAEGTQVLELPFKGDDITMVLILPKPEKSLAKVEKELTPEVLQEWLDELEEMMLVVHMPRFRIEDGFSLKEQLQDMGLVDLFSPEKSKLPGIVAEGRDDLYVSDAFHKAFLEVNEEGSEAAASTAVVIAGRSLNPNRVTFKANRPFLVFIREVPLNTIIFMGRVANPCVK

B1: Pseudomonas aeruginosa elastase (Calbiochem EC# 3.4.24.26) (protein)
chain: AEAGGPGGNQKIGKYTYGSDYGPLIVNDRCEMDDGNVITVDMNSSTDDSKTTPFRFACPTNTYKQVNGAYSPLNDAHFFGGVVFKLYRDWFGTSPLTHKLYMKVHYGRSVENAYWDGTAMLFGDGATMFYPLVSLDVAAHEVSHGFTEQNSGLIYRGQSGGMNEAFSDMAGEAAEFYMRGKNDFLIGYDIKKGSGALRYMDQPSRDGRSIDNASQYYNGIDVHHSSGVYNRAFYLLANSPGWDTRKAFEVFVDANRYYWTATSNYNSGACGVIRSAQNRNYSAADVTRAFSTVGVTCPSAL
Proteolysis of substrates [1]: +
Proteolysis of substrates [2]: +
Proteolysis of substrates [3]: +
Proteolysis of substrates [4]: +
Proteolysis of substrates [5]: +
Proteolysis of substrates [6]: +
Proteolysis of substrates [7]: +
fluorescent measurement of casein degradation [8]: elastase was able to act on casein at lower concentrations (range: 0.5 ng to 1 µg/unit of volume)
Proteolysis of substrates [9]: +
Proteolysis of substrates [10]: +
Proteolysis of substrates [11]: -

B2: StcE-His (recombinant his-tagged form of StcE, from pWL107 in BL21(DE3), strain WAM2572) (protein)
chain: ADNNSAIYFNTSQPINDLQGSLAAEVKFAQSQILPAHPKEGDSQPHLTSLRKSLLLVRPVKADDKTPVQVEARDDNNKILGTLTLYPPSSLPDTIYHLDGVPEGGIDFTPHNGTKKIINTVAEVNKLSDASGSSIHSHLTNNALVEIHTANGRWVRDIYLPQGPDLEGKMVRFVSSAGYSSTVFYGDRKVTLSVGNTLLFKYVNGQWFRSGELENNRITYAQHIWSAELPAHWIVPGLNLVIKQGNLSGRLNDIKIGAPGELLLHTIDIGMLTTPRDRFDFAKDKEAHREYFQTIPVSRMIVNNYAPLHLKEVMLPTGELLTDMDPGNGGWHSGTMRQRIGKELVSHGIDNANYGLNSTAGLGENSHPYVVAQLAAHNSRGNYANGIQVHGGSGGGGIVTLDSTLGNEFSHEVGHNYGLGHYVDGFKGSVHRSAENNNSTWGWDGDKKRFIPNFYPSQTNEKSCLNNQCQEPFDGHKFGFDAMAGGSPFSAANRFTMYTPNSSAIIQRFFENKAVFDSRSSTGFSKWNADTQEMEPYEHTIDRAEQITASVNELSESKMAELMAEYAVVKVHMWNGNWTRNIYIPTASADNRGSILTINHEAGYNSYLFINGDEKVVSQGYKKSFVSDGQFWKERDVVDTREARKPEQFGVPVTTLVGYYDPEGTLSSYIYPAMYGAYGFTYSDDSQNLSDNDCQLQVDTKEGQLRFRLANHRANNTVMNKFHINVPTESQPTQATLVCNNKILDTKSLTPAPEGLTYTVNGQALPAKENEGCIVSVNSGKRYCLPVGQRSGYSLPDWIVGQEVYVDSGAKAKVLLSDWDNLSYNRIGEFVGNVNPADMKKVKAWNGQYLDFSKPRSMRVVYKHHHHHH
Proteolysis of substrates [1]: -
Proteolysis of substrates [2]: -
Proteolysis of substrates [12]: -
Proteolysis of substrates [13]: -
Proteolysis of substrates [3]: +
Proteolysis of substrates [4]: -
Proteolysis of substrates [5]: -
Proteolysis of substrates [6]: -
Proteolysis of substrates [7]: -
fluorescent measurement of casein degradation [8]: StcE-His was unable to degrade casein even at high protein concentrations (up to 6.4 µg/unit of volume)
Proteolysis of substrates [9]: -
Proteolysis of substrates [10]: -
Proteolysis of substrates [11]: -

B3: StcE′-His (lacking the StcE N-terminal signal sequence, 6xHis tag at the C-terminus; from pTB4, strain WAM2751) (protein)
chain: B2 chain
cleavage of 35S-labeled recombinant protein (immunoprecipitation, SDS-PAGE) [14]: C-serp(98) was unaffected by the protease
cleavage of 35S-labeled recombinant protein (immunoprecipitation, SDS-PAGE) [15]: only hC1-INH was cleaved by StcE′-His
